Series [1] deals with ecHOP1-wHTH (SUMO-wHTH) (Ectocarpus). The series is described as follows: EMSA. Conditions: apparent Kd, Hill h = 1.7; 50 nM DNA; EMSA: 50 nM nucleic acid, protein 25 nM-2 uM, ~30 min at 4 C, 0.8% agarose in 0.2% TBE (so in the source) at 4 C, SYBR Gold; binding buffer, salt and pH not stated.
In series [2] the target is 2xStrepII-ecHOP1-HORMA (ecHOP1 residues 1-274) (Ectocarpus siliculosus). Nature of the series: ITC; 350 µM MBP-tagged CM titrated into 25 µM ecHOP1-HORMA in the cell; 50 mM HEPES pH 7.5, 150 mM NaCl, 1 mM EDTA; 25 °C; MicroCal PEAQ-ITC; triplicate.

From paper PMC12678776 come the findings set out here.

pKd: −log10 of the molar value.

Take 167 bp Widom DNA: in series [1], the pKd was 6.60.
“His6-MBP-CM-R-A (ecRED1 closure motif A) (domain or fragment)” gave a pKd in series [2] of 4.22.
Same read-out and setting: to “MBP-CM-H1-A (ecHOP1 isoform 1 closure motif A, residues 567-600) (domain or fragment)” belongs 5.14; to “MBP-CM-H1-B (ecHOP1 isoform 1 closure motif B, residues 665-694) (domain or fragment)”, 4.97.
